Data from CN115710315A (DONGGUAN PENGZHI BIOTECHNOLOGY CO LTD, dated 2023).

B1: Anti-CA15-3 3F10 (antibody, V domains shown)
VH: EVQLVESGGGLVKPGGSLKLSCAASGFAFSNYPMSWVRQTPEMRLEWVAYISSGGDSTYYPGTVKGRFTISRDNAKSALYLQMSSLKSEDTAMYYCTFWFRGFDYWGQGTTLTVSS
VL: DVLMTQIPLSLPVSLGDQASLSCRSSQSIVHSNGNTYLEWYLQKPGQSPKLLIYKVSNRFSGVPDRFSGSGSGTDFTLKISRVEAEDLGVYYCFQGSHVPYTFGGGTKLEIK

Target: T1, CA15-3抗原 (UniProt P15941 24-1097, limits assumed)
T1 construct: The origin of the antigen preparation used in the assays is not described; also called CA15-3(MUC1); CA15-3蛋白
T1 sequence (P15941 24-1097 limits assumed): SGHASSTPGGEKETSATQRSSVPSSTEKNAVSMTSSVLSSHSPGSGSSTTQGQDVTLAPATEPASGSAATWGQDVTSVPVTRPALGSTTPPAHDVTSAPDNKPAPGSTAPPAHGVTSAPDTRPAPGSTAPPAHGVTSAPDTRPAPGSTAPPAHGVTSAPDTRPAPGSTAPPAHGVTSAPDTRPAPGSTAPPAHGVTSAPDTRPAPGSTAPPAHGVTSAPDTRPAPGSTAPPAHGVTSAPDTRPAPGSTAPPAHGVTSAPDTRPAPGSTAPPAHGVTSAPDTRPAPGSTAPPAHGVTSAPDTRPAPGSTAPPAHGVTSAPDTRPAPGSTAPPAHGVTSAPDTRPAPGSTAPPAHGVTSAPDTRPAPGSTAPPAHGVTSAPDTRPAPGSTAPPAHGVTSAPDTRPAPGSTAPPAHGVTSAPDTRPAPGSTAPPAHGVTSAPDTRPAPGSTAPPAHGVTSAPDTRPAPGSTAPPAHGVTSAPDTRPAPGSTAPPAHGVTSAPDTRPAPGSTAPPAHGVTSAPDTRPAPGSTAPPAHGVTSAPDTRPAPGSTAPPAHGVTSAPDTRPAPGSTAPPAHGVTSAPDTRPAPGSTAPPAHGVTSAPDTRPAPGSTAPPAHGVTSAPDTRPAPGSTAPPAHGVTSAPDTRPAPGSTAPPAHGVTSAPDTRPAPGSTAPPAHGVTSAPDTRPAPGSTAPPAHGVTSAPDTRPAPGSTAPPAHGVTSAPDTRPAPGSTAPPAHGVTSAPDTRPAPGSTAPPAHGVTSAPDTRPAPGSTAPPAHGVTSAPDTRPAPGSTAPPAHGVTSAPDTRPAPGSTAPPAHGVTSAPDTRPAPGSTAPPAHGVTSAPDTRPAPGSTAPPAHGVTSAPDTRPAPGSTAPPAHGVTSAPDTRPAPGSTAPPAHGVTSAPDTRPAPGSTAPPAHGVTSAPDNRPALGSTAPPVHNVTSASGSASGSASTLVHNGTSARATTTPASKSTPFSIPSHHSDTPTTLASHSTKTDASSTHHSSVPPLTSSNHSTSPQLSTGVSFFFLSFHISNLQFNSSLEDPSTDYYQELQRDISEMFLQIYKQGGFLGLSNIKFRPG
Experiment: BLI, AMC sensor, antibody immobilised at 10 ug/ml, CA15-3 antigen in serial dilution

| Molecule | Kd [nM] | koff [s⁻¹] | kon [M⁻¹ s⁻¹] |
| --- | --- | --- | --- |
| 对照 (antibody) | 84.5 | 0.00375 | 44400 |
| B1 | 5.17 | 0.000161 | 31100 |
